Assay results reported in patent US12522635B2, “Amyloid peptide variants” (Loyola Marymount University, priority 2019, dated 2026).
Where a SMILES comes first, the peptide text is derived from it. Bridges are numbered along the chain shown (N, C = ends). Where no end group is shown, it is not given here.

What was measured:
human IAPP (hIAPP) [1] = target: T1, human IAPP (hIAPP) (Homo sapiens, UniProt P10997); test: Thioflavin T binding assay of hIAPP aggregation when mixed with IAPP peptides; format: biochemical; conditions: for inhibition of hIAPP aggregation (summary statement): peptide mixed with hIAPP, no single assay (thioflavin T and AFM); for inhibition of hIAPP aggregation, thioflavin T binding: hIAPP mixed with peptide, incubated at 37° C. with shaking
T1 construct: This 37 amino acid polypeptide is co-secreted from pancreatic β-islet cells with insulin
T1 sequence (P10997 34-70 limits assumed): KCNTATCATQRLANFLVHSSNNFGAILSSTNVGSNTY
Description: Any of a number of assays known to the art can be used to evaluate the ability of IAPP peptides to inhibit hIAPP aggregation and/or protect cells from hIAPP toxicity. Thioflavin T (ThT) binding is one such technique for identifying amyloid formation in real time. Human IAPP is known to bind thioflavin T during aggregation and amyloid formation, and upon binding to amyloid fibrils ThT will give a strong fluorescence signal at approximately 482 nm when excited at 450 nm. ThT fluorescence correlates linearly with amyloid concentration in a sample and therefore can be used to determine the amount of aggregation in a sample. This technique can therefore be used for identifying substances with amyloid-inhibiting potential when such substances are mixed with human IAPP under conditions known to result in the formation of aggregates by hIAPP. Determining the extent of aggregation can also be determined using other techniques, such as Atomic Force Microscopy (AFM), which can provide information about particle dimensions, shape, and substructure with nanometer resolution. In the foregoing assays and others that can be used by one of skill in the art, significant inhibition can be determined using a t-test by measuring the difference between hIAPP and hIAPP combined with an IAPP peptide.
To identify IAPP peptides having inhibitory potential against hIAPP aggregation, the peptides shown in FIG. 1 from a number of species (cow, degu, guinea pig, horse, pig, rat, and sheep[…]) were mixed with hIAPP at a 2:1 molar ratio of animal peptide to hIAPP and incubated under conditions known to promote hIAPP aggregation and fibril formation. IAPP alone, or hIAPP mixed with an animal IAPP, was pipetted into a glass tube and the HFIP was removed under speed-vacuum. The resulting peptide sample was dissolved in 20 mM Tris buffer pH 7.4.
37 μM human IAPP was mixed with 75 μM of each indicated animal IAPP. Aggregation was initiated by incubating samples at 37° C. with shaking at 200 rpm for 40 minutes. At indicated time points, a 17 μL aliquot of each sample was mixed with 663 μL of 50.0 μM thioflavin T in 20 mM Tris buffer (pH 7.4). Thioflavin T fluorescence emission was then recorded at 488 nm using a Hitachi F-7000 fluorescence spectrophotometer.
After 40 minutes, these samples were monitored for their ability to bind thioflavin T (see FIG. 2) and their ability to form fibrils as identified with atomic force microscopy.
Human IAPP (37 μM) was mixed with each of the indicated Weddell seal variants (at 75 μM) and incubated for 30 minutes at 37° C. with shaking at 200 rpm. The Weddell seal IAPP peptides were likewise subjected to atomic force microscopy as described in Example 2.
Human IAPP was mixed with each of the indicated raccoon variants and incubated at 37° C. with shaking.
Human IAPP was mixed with each of the indicated chicken variants and incubated at 37° C. with shaking. […] However, it was able to protect cells in MTT assays, so it is believed to inhibit formation of toxic oligomers while having a lesser effect on inhibiting the formation of fibers (which are less toxic and less able to bind ThT).
Human IAPP was mixed with each of the indicated chicken variants and incubated at 37° C. with shaking.

human IAPP (hIAPP) [2] = target: T1, human IAPP (hIAPP); test: Atomic force microscopy (AFM) of hIAPP fibril formation when mixed with IAPP peptides; format: biochemical; conditions: 37 μM hIAPP and 75 μM peptide, 37° C. with shaking for 40 minutes
Description: Samples labeled with hIAPP contained 40 μM hIAPP. The sample with pramlintide and hIAPP contained a 2:1 molar mixture (80 μM Pramlintide mixed with 40 μM hIAPP). The samples with raccoon IAPP and Pramlintide alone contained 40 μM of the indicated peptides. Each sample was incubated for 40 minutes at 37° C. with shaking; conditions known to promote hIAPP amyloid formation. All scans show raw data with no flattening and are […].
Each sample contained 37 μM hIAPP and 75 μM of the indicated peptide. Samples were incubated at 37° C. with shaking for 40 minutes. All scans show raw data with no flattening and are […].
Each sample contained 37 μM hIAPP mixed with 37 μM of the indicated peptide. Samples were incubated at 37° C. with shaking for 30 minutes before depositing each sample onto freshly cleaved mica.
Samples of hIAPP with or without animal IAPP were prepared as described in Example 1 and were then incubated with shaking at 37° C. for 40 minutes. After this incubation, 17 μL of each sample was deposited onto freshly cleaved mica. Samples were incubated for 5 minutes at room temperature before washing with 200 μL sterile water. After drying, the samples were scanned using an MFP-3D atomic force microscope (Asylum Research) set on A/C mode and a 240 m silicon cantilever (Olympus).
Many of the animal IAPP variants are known to likewise form fibrils and yield amyloid-plaques when scanned via AFM. […] This is in spite of the fact that all of these IAPP peptides (except polar bear IAPP) are known to aggregate and form fibrils themselves under these or similar conditions

RIN-m cells = test: MTT viability assay, peptide alone or mixed with hIAPP; format: cell-based; conditions: for rescue / protection of cells from hIAPP toxicity (words): hIAPP mixed with peptide 1:1, MTT assay
Description: Cytoprotection can likewise be measured by a number of assays known to the art. One such assay is the MTT assay, which is a colorimetric assay for assessing cell metabolic activity. NAD(P)H-dependent cellular oxidoreductase enzymes in the cytosolic compartment of a cell reduces the tetrazolium dye MTT 3-(4,5-dimethylthiazol-2-yl)-2,5-diphenyltetrazolium bromide to an insoluble form, formazan, which has a purple color. The reduction of MTT (and other tetrazolium dyes) depends on the cellular metabolic activity, so a loss of color in the course of performing an MTT assay indicates low metabolic activity, and is thus an indicator of cell damage and death.
To test cell viability, a MTT colorimetric assay measuring the conversion of yellow tetrazolium salt into purple formazan crystal catalyzed by a mitochondrial reductase was used. Cell viability studies were performed using RIN-m cells (ATCC, CRL-2057). An equal number of RIN-m cells were plated in triplicate and incubated overnight in 96-well plates. The next day, fresh RPMI-1640 with phenol red supplemented with 10% FBS was added to cells. Hexafluoroisopropanol (HFIP) was removed from each individual human and animal IAPP using a centrivap concentrator (LabOnco). All IAPP peptide samples were re-suspended in RPMI-1640 with 10% FBS. To ensure even re-suspension, each resulting IAPP-containing vial was scraped with a pipette tip six times and vortexed (Vortex Genie Mixer) for 15 seconds. The whole process, from drying each IAPP peptide to adding each IAPP peptide to the cells was uniform to ensure that each sample was incubated for an equal amount of time with each IAPP peptide. IAPP peptides were added to cells and incubated for 46 hours at 37° C. Post-incubation, the media in each well was replaced by fresh DMEM/F-12 without phenol red. MTT (3-(4,5-dimethyl-2-thiazolyl)-2,5-diphenyl-tetrazolium bromide) was added into each well and incubated at 37° C. for 2 hours. Formazan crystals, formed on the bottom of the wells, were re-suspended in solubilization buffer (20% SDS and 50% dimethylformamide). The absorbance in each well was taken at 570 nm using a Multiskan FC Microplate Photometer (Thermos Fisher Scientific). Media were obtained from ATCC. All incubations took place in a water jacketed incubator in 5% carbon dioxide at 37° C. (Shell Lab).
The MTT viability assay was used to measure cell viability of RIN-m cells upon addition of hIAPP alone, the addition of each animal IAPP peptide alone, and hIAPP mixed with each animal IAPP peptide (results shown in FIG. 5). RIN-m cells alone were used as a control and set to 100% cell viability. […] Addition of raccoon IAPP to hIAPP increased the cell viability from 55% to an average of 72% (p=0.005705). Addition of chicken IAPP variant to hIAPP increased cell viability to an average of 76% (p=0.013556).

Row | Molecule | inhibition of hIAPP aggregation, thioflavin T binding (human IAPP (hIAPP) [1]) | inhibition of hIAPP aggregation (summary statement) (human IAPP (hIAPP) [1]) | inhibition of hIAPP fibril formation, AFM (human IAPP (hIAPP) [2]) | toxicity of peptide to cells (RIN-m cells; peptide alone, MTT assay, pancreatic (RIN-m) cells) | rescue / protection of cells from hIAPP toxicity (words) (RIN-m cells)
1 | CC[C@H](C)[C@H](NC(=O)[C@H](C)NC(=O)CNC(=O)[C@H](CC(C)C)NC(=O)[C@H](CC(N)=O)NC(=O)[C@H](CC(N)=O)NC(=O)[C@H](CO)NC(=O)[C@H](CO)NC(=O)[C@H](CCCNC(=N)N)NC(=O)[C@@H](NC(=O)[C@H](CC(C)C)NC(=O)[C@H](Cc1ccccc1)NC(=O)[C@H](CC(N)=O)NC(=O)[C@H](C)NC(=O)[C@H](CC(C)C)NC(=O)[C@H](CCCNC(=N)N)NC(=O)[C@H](CCC(N)=O)NC(=O)[C@@H](NC(=O)[C@H](C)NC(=O)[C@@H]1CSSC[C@H](NC(=O)[C@@H](N)CCCCN)C(=O)N[C@@H](CC(N)=O)C(=O)N[C@@H]([C@@H](C)O)C(=O)N[C@@H](C)C(=O)N[C@@H]([C@@H](C)O)C(=O)N1)[C@@H](C)O)[C@@H](C)CC)C(=O)N[C@@H](CC(C)C)C(=O)N[C@@H](CO)C(=O)N1CCC[C@H]1C(=O)N[C@H](C(=O)N[C@@H](CC(N)=O)C(=O)N[C@H](C(=O)NCC(=O)N[C@@H](CO)C(=O)N[C@@H](CC(N)=O)C(=O)N[C@H](C(=O)N[C@@H](Cc1ccc(O)cc1)C(N)=O)[C@@H](C)O)C(C)C)[C@@H](C)O [cat IAPP] (H-KCNTATCATQRLANFLIRSSNNLGAILSPTNVGSNTY-NH2; disulfide 2-7 (inferred); N-terminus and C-terminus assumed) | – | able to inhibit such aggregation | significant ability to prevent fiber formation | – | –
2 | KCNTATCATQRLANFLVRSGNLFGAILSPTNVGSNTY (listed as Ursus maritimus) [polar bear IAPP] | – | able to inhibit such aggregation | significant ability to prevent fiber formation | – | not capable of protecting RIN-m cells from the toxic effects of hIAPP
3 | KCNTATCATQRLANFLVRTSNNLGAILSPTNVGSNTY (ends and bridges not checked; cysteine pairing not given here) [dog IAPP] | – | able to inhibit such aggregation | significant ability to prevent fiber formation | – | –
4 | KCNTATCVTQRLADFLVRSSSNIGAIY (Gallus gallus truncation) [C1-27] | inhibited hIAPP aggregation | – | did | – | rescued cells from hIAPP-induced cytotoxicity
5 | KCNTATCVTQRLADFLVRSSSNIGAIYSP (Gallus gallus truncation) [C1-29] | inhibited hIAPP aggregation | – | amyloid fibers were formed and did | – | rescued cells from hIAPP-induced cytotoxicity
6 | cow IAPP: naturally occurring IAPP peptide of cow origin (FIG. 1) (CGTATCETQRLANFLAPSSNKLGAIFSPTKMGSNTY; ends and bridges not checked; cysteine pairing not given here) | – | failed to inhibit the aggregation of human IAPP | either had no effect on hIAPP fibril formation or appeared to promote fibrils with hIAPP | – | –
7 | degu IAPP: naturally occurring IAPP peptide of degu origin (FIG. 1) (KCNTATCATQRLTNFLVRSSHNLGAALPPTKVGSNTY; ends and bridges not checked; cysteine pairing not given here; UniProt P22889 37-73, looked up) | – | failed to inhibit the aggregation of human IAPP | either had no effect on hIAPP fibril formation or appeared to promote fibrils with hIAPP | – | –
8 | guinea pig IAPP: naturally occurring IAPP peptide of guinea pig origin (FIG. 1) (KCNTATCATQRLTNFLVRSSHNLGAALLPTDVGSNTY; ends and bridges not checked; cysteine pairing not given here; UniProt P12966 37-73, looked up) | – | failed to inhibit the aggregation of human IAPP | either had no effect on hIAPP fibril formation or appeared to promote fibrils with hIAPP | – | –

Now from value to molecule, other results behind:

Row | inhibition of hIAPP aggregation, thioflavin T binding (human IAPP (hIAPP) [1]) | Molecule | inhibition of hIAPP aggregation (summary statement) (human IAPP (hIAPP) [1]) | inhibition of hIAPP fibril formation, AFM (human IAPP (hIAPP) [2]) | toxicity of peptide to cells (RIN-m cells; peptide alone, MTT assay, pancreatic (RIN-m) cells) | rescue / protection of cells from hIAPP toxicity (words) (RIN-m cells)
9 | inhibited hIAPP aggregation | KCNTATCATQRLANFLVHSSNNLGAILSPTNVGSNTY (KTATCATQRLANFLVHSSNNLGAILSPTNVGSNTY; Leptonychotes weddellii mutation) [WS_LP] | – | strong inhibitors of hIAPP fiber formation | toxic to cells, with and without addition of hIAPP | –
10 | inhibited hIAPP aggregation | KCNTATCATQRLANFLVRSSNNLGAILSSTNVGSNTY (Leptonychotes weddellii mutation) [WS_RL] | – | strong inhibitors of hIAPP fiber formation | – | rescued cells from hIAPP toxicity
